Measurements from paper PMC8042168, “The cell surface hyaluronidase TMEM2 regulates cell adhesion and migration via degradation of hyaluronan at focal adhesion sites” (The Journal of Biological Chemistry, 2021).

Target: T1, recombinant human α5β1 ECD heterodimer (human, UniProt P08648 42-995; P05556 21-728)
T1 construct: integrin α5, human, extracellular domain; integrin β1, human, extracellular domain; also called recombinant heterodimer of integrin ECD (α5β1); source: bought: R&D Systems (3230-A5-050)
T1 sequence (P08648 42-995, chain 1 of 2): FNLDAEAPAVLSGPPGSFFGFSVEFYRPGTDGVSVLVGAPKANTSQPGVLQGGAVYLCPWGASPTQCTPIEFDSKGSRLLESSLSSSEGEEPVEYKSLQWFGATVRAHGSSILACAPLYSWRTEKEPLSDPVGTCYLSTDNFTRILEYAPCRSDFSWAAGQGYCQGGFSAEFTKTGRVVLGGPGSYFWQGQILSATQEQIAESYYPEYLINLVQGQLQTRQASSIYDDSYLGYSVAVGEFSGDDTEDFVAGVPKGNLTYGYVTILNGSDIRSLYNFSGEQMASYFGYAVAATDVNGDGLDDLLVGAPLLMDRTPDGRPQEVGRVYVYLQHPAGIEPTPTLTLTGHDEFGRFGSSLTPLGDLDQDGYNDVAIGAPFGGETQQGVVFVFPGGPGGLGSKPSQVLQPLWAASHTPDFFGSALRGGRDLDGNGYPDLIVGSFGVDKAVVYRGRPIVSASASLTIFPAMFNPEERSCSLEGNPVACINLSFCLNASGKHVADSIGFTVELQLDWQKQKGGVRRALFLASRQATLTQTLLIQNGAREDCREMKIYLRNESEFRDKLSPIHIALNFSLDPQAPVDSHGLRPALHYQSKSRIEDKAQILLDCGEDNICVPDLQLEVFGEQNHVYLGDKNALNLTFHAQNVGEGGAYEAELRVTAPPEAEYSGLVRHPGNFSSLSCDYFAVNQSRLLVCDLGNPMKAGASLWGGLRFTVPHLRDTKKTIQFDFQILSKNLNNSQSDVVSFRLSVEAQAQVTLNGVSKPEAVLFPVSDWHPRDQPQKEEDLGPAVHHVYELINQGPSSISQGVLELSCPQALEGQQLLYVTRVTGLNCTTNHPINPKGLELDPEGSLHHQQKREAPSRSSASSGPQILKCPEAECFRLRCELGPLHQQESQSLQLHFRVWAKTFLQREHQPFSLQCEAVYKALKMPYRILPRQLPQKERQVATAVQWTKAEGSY
T1 sequence (P05556 21-728, chain 2 of 2): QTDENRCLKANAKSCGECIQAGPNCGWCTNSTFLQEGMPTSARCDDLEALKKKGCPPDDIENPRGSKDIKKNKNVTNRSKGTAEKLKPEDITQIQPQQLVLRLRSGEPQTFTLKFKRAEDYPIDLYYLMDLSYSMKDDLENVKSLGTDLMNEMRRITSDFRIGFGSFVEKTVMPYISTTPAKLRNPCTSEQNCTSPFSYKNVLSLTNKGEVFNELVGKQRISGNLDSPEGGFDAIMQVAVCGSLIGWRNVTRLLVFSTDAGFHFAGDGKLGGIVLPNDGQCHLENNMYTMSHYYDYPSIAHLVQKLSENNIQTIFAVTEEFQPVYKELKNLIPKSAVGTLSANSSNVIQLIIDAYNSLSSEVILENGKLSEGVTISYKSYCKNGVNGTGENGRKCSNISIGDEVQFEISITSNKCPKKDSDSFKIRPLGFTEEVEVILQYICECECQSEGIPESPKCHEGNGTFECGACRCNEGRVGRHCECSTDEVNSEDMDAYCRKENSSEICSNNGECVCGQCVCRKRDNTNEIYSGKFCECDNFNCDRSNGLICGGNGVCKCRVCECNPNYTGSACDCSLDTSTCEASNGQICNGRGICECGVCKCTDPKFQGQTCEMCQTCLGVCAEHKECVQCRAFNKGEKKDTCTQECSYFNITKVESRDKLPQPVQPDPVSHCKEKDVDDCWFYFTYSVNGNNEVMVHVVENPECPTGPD
Experiment: pull-down; TMEM2–ECD-His6 (about 5 μg/20 μl) held on ProBond nickel chelating resin; 2 μg recombinant integrin ECD heterodimer incubated in HBSS++ overnight at 4 °C; control unbound resin; blots
Conditions: both partners purified

B1: recombinant soluble TMEM2 extracellular domain, 6x His-tagged (domain or fragment, mouse, UniProt Q5FWI3 104-1383, looked up)
chain: SSKYAPDENCPDQNPRLRNWDPGQDSAKHIVIKEGDLFRLTSDATVDSIVIQDGGLLVFGDDKDGSKNITLRTRYILIQDGGALHIGAEKCRYRSKATITLYGKSDERESMPIFGKKFIGVEAGGTLELHGAQRTSWTMLARTLHSSGLPFGSYAFEKDFSRGLNVRVIDQDTARVLENEKFDTHEYHNESRRLQEFLRAQEPGRIVAIAVGDSAVKSLLQGTIQMIQDRLGSKLIQGLGYRQAWALVGVIDGGSSSCNESVRNYENHSTGGKALAQGEFYTLDGQKFSVTAYSEWSQGISLSGFRVDIADGVKLHLLDDVSTWEAGDRIVVASTDYSMYQAEELTLLRCPECSRSQVKVKEIPQYLHVGEIIDGIDMRAEVGLLTRNIVIQGEMEDSCYAENHCQFFDYDTFGGHVMIEKNFTSVHLSYVELKHMGQQHMGRYPVHFHLCGDVDSKGGYSQPASVDGLSVHHSFSRCITVHGTSGLLIKDTIGFDTLGHCFFLEDGVEQRNILYHNLGLLTKPGTLLPTDRNSSMCTVMRDGVFGNYVPVPTTDCMAVSTFWIAHPNNHLINNAAAGSQDAGIWYLFHKEPTGESSGLQLLEKPELTPLGIFYNNRVHSNFKAGLFVDKGVKTTNASASDPREYLCLDNSARFRPHQDADPEKPRVAAIIDRLIAFKNNDNGAWVRGGDIIVQNSAFADNGKGLTFASDGSFPSDEGSSQEVTESLFVGESRNYGFQGGQNKYMGTGGIDQKPRTLPRNRTFPIRGFQIYDGPIHLTKSTFKKYVPTPDRYSSAIGFLMKNSWQTTPRNNVSLVKFGPQVSLNVFFGKPGPWFEDCELDGDKNSIFHDIDGSVTGYKDTYVGRMDNYLIRHPNCVNVTKWNAVICSGTYAQVYVQTWNTPNLSMIITRDEYPSHPMVLRGINQRAISPQYQPVVMLEKGYTIHWNGPAPRTTFLYLVNFNKDDWIRVGLCYPANTSFQVTVGFLQRQNGSLSRIEDYEPARSMEELQKKPSERKFYFDSGTGLLFLYLRAHSHRDGHSYCSSQGCERVKIQAATDSKDISNCMAKAYPQYYKKPSAVKRMPAMLTGLCQGCGTHQMVFTSDPHKSYLPVRFQSPGKAEIQRGDPSIISVNGTDFTFRSAGALLLIVDACSVPFRVKEKRMFLSADVSHMEEYFKASIPPRSIVLLSTRGEIKQLNISDSLAVLGLAKPAHLYSKGSVVFLGFSGNFAPSWTKLFTSPDEQGLGVLEQFLPLQMEEYGCSRTGSVHRRDLDLLQQALKVL
notes: transmembrane protein 2 (TMEM2; CEMIP2), mouse, extracellular domain Ser104–Leu1383; in pSecTag2A with the C-terminal Myc peptide removed; the vector supplies a secretion leader (surmised); also called TMEM2 ECD; TMEM2–ECD; not shown: His6, C-terminal, kept
Q: Does B1 bind?
A: binds
